Results: US20190023793A1

Molecular target: human PD-L1 full-length protein on cells (human) (UniProt Q9NZQ7)
Assay: cell-based or functional assay

Sequence of human PD-L1 full-length protein on cells (human) (Q9NZQ7 19-290): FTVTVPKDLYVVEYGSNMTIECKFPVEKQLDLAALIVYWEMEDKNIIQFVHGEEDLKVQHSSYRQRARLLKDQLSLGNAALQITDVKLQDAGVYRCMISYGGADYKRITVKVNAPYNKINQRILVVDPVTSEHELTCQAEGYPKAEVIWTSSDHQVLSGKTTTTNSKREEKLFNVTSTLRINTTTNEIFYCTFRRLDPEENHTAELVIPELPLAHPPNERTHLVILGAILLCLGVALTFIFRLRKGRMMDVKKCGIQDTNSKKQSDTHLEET

| MOA NFAT reporter signal (Bio-Glo) at 0.005 nm | MOA NFAT reporter signal (Bio-Glo) at 0.015 nm | MOA NFAT reporter signal (Bio-Glo) at 0.046 nm | MOA NFAT reporter signal (Bio-Glo) at 0.137 nm | MOA NFAT reporter signal (Bio-Glo) at 0.412 nm | MOA NFAT reporter signal (Bio-Glo) at 1.235 nm | MOA NFAT reporter signal (Bio-Glo) at 3.704 nm | MOA NFAT reporter signal (Bio-Glo) at 11.111 nm | MOA NFAT reporter signal (Bio-Glo) at 33.333 nm | MOA NFAT reporter signal (Bio-Glo) at 100.000 nm | MOA NFAT reporter signal (Bio-Glo) at 100.000 nm, negative control | Substance |
| --- | --- | --- | --- | --- | --- | --- | --- | --- | --- | --- | --- |
| 16900 | 18400 | 17200 | 19200 | 29300 | 70800 | 96900 | 96500 | 98000 | 94000 | – | Atezolizumab (antibody) |
| 18200 | – | 20300 | 23200 | 53100 | 89700 | 103000 | 97900 | 102000 | 94100 | – | Durvalumab (antibody) |
| – | – | – | – | – | – | – | – | – | – | 15700 | IgG1 negative control (antibody) |
